Laboratory results published in patent US20090136998A1 (Stanford University, published 2009).

Biological target: T1, human VEGFR-2 expressed on porcine aortic endothelial cells (PAE/VEGFR-2) (human, UniProt P35968 20-1356)
T1 construct: whole, on cells; also called KDR; PAE/KDR cells
Experiment: competitive bioluminescence ELISA on PAE/VEGFR-2 cells; cold VEGF 121 varied against RL8-VEGF
Procedure: FIG. 10A illustrates coomassie Blue staining of purified fusion proteins and control proteins. […] FIG. 10B illustrates a Western Blot of purified proteins. […] FIG. 10C illustrates competitive bioluminescence ELISA on PAE/VEGFR-2 overexpressing cells.
Cells were washed and incubated with 0.5 μg of coelenterazine substrate and immediately imaged in the Xenogen IVIS 100 optical cooled charge-coupled device (CCD) (Xenogen, Alameda, Calif.). Regions of interest (ROIs) were drawn over the cell area and quantified in average photons/second/centimeter²/steradian (photons/s/cm²/sr) by using […] version 2.50 (Xenogen, Alameda, Calif.).

T1 sequence (P35968 20-1356): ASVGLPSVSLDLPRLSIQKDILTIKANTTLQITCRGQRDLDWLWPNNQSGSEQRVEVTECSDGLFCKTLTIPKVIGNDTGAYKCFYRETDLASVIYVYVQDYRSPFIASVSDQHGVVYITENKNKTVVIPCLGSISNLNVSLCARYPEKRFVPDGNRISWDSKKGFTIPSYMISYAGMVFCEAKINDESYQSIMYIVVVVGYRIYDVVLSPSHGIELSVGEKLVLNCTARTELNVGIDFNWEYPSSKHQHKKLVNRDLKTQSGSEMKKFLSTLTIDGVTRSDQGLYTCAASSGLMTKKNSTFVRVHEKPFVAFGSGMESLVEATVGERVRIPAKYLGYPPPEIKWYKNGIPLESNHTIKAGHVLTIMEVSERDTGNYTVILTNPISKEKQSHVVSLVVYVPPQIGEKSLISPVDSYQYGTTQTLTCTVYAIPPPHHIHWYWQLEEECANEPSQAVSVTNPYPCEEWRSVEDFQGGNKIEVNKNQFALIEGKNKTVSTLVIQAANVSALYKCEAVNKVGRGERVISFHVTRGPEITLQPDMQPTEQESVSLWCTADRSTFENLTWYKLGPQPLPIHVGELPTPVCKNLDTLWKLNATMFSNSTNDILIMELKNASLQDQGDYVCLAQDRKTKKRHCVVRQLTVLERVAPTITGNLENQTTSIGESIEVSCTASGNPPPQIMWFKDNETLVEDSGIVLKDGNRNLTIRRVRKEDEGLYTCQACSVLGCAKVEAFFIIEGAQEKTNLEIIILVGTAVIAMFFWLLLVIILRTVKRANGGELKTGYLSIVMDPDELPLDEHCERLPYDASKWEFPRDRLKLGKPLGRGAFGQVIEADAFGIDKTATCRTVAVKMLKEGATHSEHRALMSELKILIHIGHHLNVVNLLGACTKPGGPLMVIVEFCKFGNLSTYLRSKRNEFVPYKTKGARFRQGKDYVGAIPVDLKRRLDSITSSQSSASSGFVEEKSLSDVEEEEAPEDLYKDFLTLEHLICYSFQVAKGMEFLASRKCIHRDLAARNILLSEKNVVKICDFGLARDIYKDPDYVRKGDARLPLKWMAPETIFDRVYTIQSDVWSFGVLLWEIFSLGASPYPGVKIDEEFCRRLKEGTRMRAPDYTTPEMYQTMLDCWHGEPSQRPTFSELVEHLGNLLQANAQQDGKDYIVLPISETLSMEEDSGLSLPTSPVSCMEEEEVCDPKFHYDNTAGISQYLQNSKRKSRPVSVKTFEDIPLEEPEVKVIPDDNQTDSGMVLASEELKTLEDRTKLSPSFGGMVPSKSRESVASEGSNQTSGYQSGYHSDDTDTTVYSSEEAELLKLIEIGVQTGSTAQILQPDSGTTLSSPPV

- IC50: 0.045 µg/mL
B1: recombinant human VEGF 121 (PeproTech) (ligand, UniProt P15692-9 27-147, looked up)
chain: APMAEGGGQNHHEVVKFMDVYQRSYCHPIETLVDIFQEYPDEIEYIFKPSCVPLMRCGGCCNDEGLECVPTEESNITMQIMRIKPHQGQHIGEMSFLQHNKCECRPKKDRARQEKCDKPRR
